# Laboratory results taken from patent US9821050.
# Biological target: DENV2 (S-16803) intact virus, E glycoprotein on the virion (dengue virus serotype 2 (S-16803))
# Test: cell-based or functional assay
substance,measurement,value
human monoclonal antibody 2D22,Neut50 value,< 0.2 µg/mL
